Source: the supplement of paper PMC9112550, “Optimization of the antimicrobial peptide Bac7 by deep mutational scanning” (BMC Biology, 2022)

System: Escherichia coli TOP10
Test: shrunken log2 fold change of peptide-encoding DNA abundance (4.5 h post-induction vs induction); higher = less antimicrobial activity (less host growth inhibition)
Details: time post-induction: 4.5 h; library: site-saturation at positions 5, 18, 19, 20
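Also: peptides expressed intracellularly from a pBAD plasmid library in pooled LB shake-flask culture, induced with 0.3% L-arabinose, DNA abundance read by NGS, three biological replicates, DESeq2 with apeglm shrinkage.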

| Sequence | shrunken log2 fold change |
| --- | --- |
| RRIRDRPPRLPRPRPRPNTGPRP | -0.098 |
| RRIRDRPPRLPRPRPRPNWEPRP | 0.0184 |
| RRIRDRPPRLPRPRPRPNYLPRP | -0.126 |
| RRIRDRPPRLPRPRPRPNYTPRP | -0.771 |
| RRIRDRPPRLPRPRPRPPAMPRP | 0.87 |
| RRIRDRPPRLPRPRPRPPDPPRP | 0.931 |
| RRIRDRPPRLPRPRPRPPGAPRP | 0.564 |
| RRIRDRPPRLPRPRPRPPIQPRP | 0.242 |
| RRIRDRPPRLPRPRPRPPKAPRP | -0.122 |
| RRIRDRPPRLPRPRPRPPKDPRP | 0.314 |
| RRIRDRPPRLPRPRPRPPLKPRP | 0.0742 |
| RRIRDRPPRLPRPRPRPPMCPRP | -0.0883 |
| RRIRDRPPRLPRPRPRPPMHPRP | 0.319 |
| RRIRDRPPRLPRPRPRPPMSPRP | 0.137 |
| RRIRDRPPRLPRPRPRPPPDPRP | 1.14 |
| RRIRDRPPRLPRPRPRPPPSPRP | 0.838 |
| RRIRDRPPRLPRPRPRPPQCPRP | 0.243 |
| RRIRDRPPRLPRPRPRPPRNPRP | 0.27 |
| RRIRDRPPRLPRPRPRPPSHPRP | -0.203 |
| RRIRDRPPRLPRPRPRPPSWPRP | 0.102 |
| RRIRDRPPRLPRPRPRPPTKPRP | 0.00654 |
| RRIRDRPPRLPRPRPRPPTRPRP | 0.596 |
| RRIRDRPPRLPRPRPRPPWTPRP | 0.238 |
| RRIRDRPPRLPRPRPRPPYDPRP | -0.00841 |
| RRIRDRPPRLPRPRPRPPYHPRP | -0.302 |

| Sequence | shrunken log2 fold change |
| --- | --- |
| RRIRDRPPRLPRPRPRPQAKPRP | -0.0241 |
| RRIRDRPPRLPRPRPRPQATPRP | 0.403 |
| RRIRDRPPRLPRPRPRPQDGPRP | 0.0175 |
| RRIRDRPPRLPRPRPRPQEKPRP | 0.0105 |
| RRIRDRPPRLPRPRPRPQERPRP | 0.0671 |
| RRIRDRPPRLPRPRPRPQFDPRP | -0.0102 |
| RRIRDRPPRLPRPRPRPQFEPRP | 0.0888 |
| RRIRDRPPRLPRPRPRPQGHPRP | -0.0748 |
| RRIRDRPPRLPRPRPRPQGPPRP | 0.0365 |
| RRIRDRPPRLPRPRPRPQHPPRP | -0.00435 |
| RRIRDRPPRLPRPRPRPQIGPRP | -0.00672 |
| RRIRDRPPRLPRPRPRPQKGPRP | 0.00967 |
| RRIRDRPPRLPRPRPRPQKHPRP | -0.108 |
| RRIRDRPPRLPRPRPRPQKVPRP | -0.114 |
| RRIRDRPPRLPRPRPRPQLIPRP | 0.0732 |
| RRIRDRPPRLPRPRPRPQMCPRP | -0.183 |
| RRIRDRPPRLPRPRPRPQMFPRP | -0.0311 |
| RRIRDRPPRLPRPRPRPQMLPRP | 0.269 |
| RRIRDRPPRLPRPRPRPQMYPRP | -0.127 |
| RRIRDRPPRLPRPRPRPQQKPRP | -0.14 |
| RRIRDRPPRLPRPRPRPQRCPRP | 0.121 |
| RRIRDRPPRLPRPRPRPQRDPRP | 0.0917 |
| RRIRDRPPRLPRPRPRPQRLPRP | 0.116 |
| RRIRDRPPRLPRPRPRPQRPPRP | 0.0335 |
| RRIRDRPPRLPRPRPRPQSPPRP | 0.0974 |

| Sequence | shrunken log2 fold change |
| --- | --- |
| RRIRDRPPRLPRPRPRPQTEPRP | 0.125 |
| RRIRDRPPRLPRPRPRPQVMPRP | 0.0256 |
| RRIRDRPPRLPRPRPRPQVPPRP | -0.0122 |
| RRIRDRPPRLPRPRPRPQWCPRP | 0.0917 |
| RRIRDRPPRLPRPRPRPQWFPRP | 0.0117 |
| RRIRDRPPRLPRPRPRPQWWPRP | 0.274 |
| RRIRDRPPRLPRPRPRPQYCPRP | -0.207 |
| RRIRDRPPRLPRPRPRPQYMPRP | 0.0516 |
| RRIRDRPPRLPRPRPRPRCDPRP | -0.0149 |
| RRIRDRPPRLPRPRPRPRFWPRP | 0.935 |
| RRIRDRPPRLPRPRPRPRGRPRP | 0.614 |
| RRIRDRPPRLPRPRPRPRHGPRP | -0.0452 |
| RRIRDRPPRLPRPRPRPRHIPRP | -0.25 |
| RRIRDRPPRLPRPRPRPRHLPRP | -0.199 |
| RRIRDRPPRLPRPRPRPRHMPRP | 0.0599 |
| RRIRDRPPRLPRPRPRPRIIPRP | -0.00686 |
| RRIRDRPPRLPRPRPRPRLEPRP | 0.387 |
| RRIRDRPPRLPRPRPRPRLSPRP | 0.286 |
| RRIRDRPPRLPRPRPRPRLVPRP | 0.314 |
| RRIRDRPPRLPRPRPRPRMAPRP | 0.465 |
| RRIRDRPPRLPRPRPRPRMKPRP | 0.0166 |
| RRIRDRPPRLPRPRPRPRMMPRP | 0.312 |
| RRIRDRPPRLPRPRPRPRPMPRP | 0.583 |
| RRIRDRPPRLPRPRPRPRPTPRP | 0.381 |
| RRIRDRPPRLPRPRPRPRRCPRP | 0.142 |

| Sequence | shrunken log2 fold change |
| --- | --- |
| RRIRDRPPRLPRPRPRPRSTPRP | -0.00371 |
| RRIRDRPPRLPRPRPRPRTKPRP | 0.16 |
| RRIRDRPPRLPRPRPRPRTWPRP | 0.0224 |
| RRIRDRPPRLPRPRPRPRVEPRP | 0.137 |
| RRIRDRPPRLPRPRPRPRVKPRP | 0.103 |
| RRIRDRPPRLPRPRPRPRVLPRP | 0.173 |
| RRIRDRPPRLPRPRPRPRWEPRP | -0.0171 |
| RRIRDRPPRLPRPRPRPRWHPRP | 0.42 |
| RRIRDRPPRLPRPRPRPRYQPRP | 0.204 |
| RRIRDRPPRLPRPRPRPRYTPRP | -0.219 |
| RRIRDRPPRLPRPRPRPSAIPRP | 0.0484 |
| RRIRDRPPRLPRPRPRPSEMPRP | -0.0135 |
| RRIRDRPPRLPRPRPRPSFQPRP | -0.0455 |
| RRIRDRPPRLPRPRPRPSGRPRP | 0.124 |
| RRIRDRPPRLPRPRPRPSGTPRP | -0.199 |
| RRIRDRPPRLPRPRPRPSHEPRP | -0.0403 |
| RRIRDRPPRLPRPRPRPSIAPRP | 0.146 |
| RRIRDRPPRLPRPRPRPSKQPRP | -0.257 |
| RRIRDRPPRLPRPRPRPSNFPRP | -0.0206 |
| RRIRDRPPRLPRPRPRPSNTPRP | -0.75 |
| RRIRDRPPRLPRPRPRPSPGPRP | 0.241 |
| RRIRDRPPRLPRPRPRPSQGPRP | -0.0558 |
| RRIRDRPPRLPRPRPRPSQNPRP | 0.113 |
| RRIRDRPPRLPRPRPRPSQPPRP | -0.0206 |
| RRIRDRPPRLPRPRPRPSSEPRP | 0.186 |

| Sequence | shrunken log2 fold change |
| --- | --- |
| RRIRDRPPRLPRPRPRPSVGPRP | 0.217 |
| RRIRDRPPRLPRPRPRPSYGPRP | -0.0489 |
| RRIRDRPPRLPRPRPRPSYKPRP | -0.208 |
| RRIRDRPPRLPRPRPRPTAQPRP | 0.0542 |
| RRIRDRPPRLPRPRPRPTCLPRP | 0.653 |
| RRIRDRPPRLPRPRPRPTCYPRP | 0.289 |
| RRIRDRPPRLPRPRPRPTETPRP | -0.000924 |
| RRIRDRPPRLPRPRPRPTFGPRP | 0.228 |
| RRIRDRPPRLPRPRPRPTHMPRP | 0.381 |
| RRIRDRPPRLPRPRPRPTHTPRP | -0.311 |
| RRIRDRPPRLPRPRPRPTHVPRP | 0.244 |
| RRIRDRPPRLPRPRPRPTIEPRP | 0.324 |
| RRIRDRPPRLPRPRPRPTIMPRP | -0.347 |
| RRIRDRPPRLPRPRPRPTIQPRP | -0.0142 |
| RRIRDRPPRLPRPRPRPTKVPRP | -0.274 |
| RRIRDRPPRLPRPRPRPTMWPRP | 0.176 |
| RRIRDRPPRLPRPRPRPTRLPRP | 0.491 |
| RRIRDRPPRLPRPRPRPTRWPRP | 1.38 |
| RRIRDRPPRLPRPRPRPTSAPRP | 0.418 |
| RRIRDRPPRLPRPRPRPTSCPRP | 0.037 |
| RRIRDRPPRLPRPRPRPTSGPRP | 0.151 |
| RRIRDRPPRLPRPRPRPTVAPRP | 1.14 |
| RRIRDRPPRLPRPRPRPTVQPRP | 0.158 |
| RRIRDRPPRLPRPRPRPTWEPRP | 1.13 |
| RRIRDRPPRLPRPRPRPVAPPRP | 0.445 |

| Sequence | shrunken log2 fold change |
| --- | --- |
| RRIRDRPPRLPRPRPRPVEMPRP | -0.0847 |
| RRIRDRPPRLPRPRPRPVFNPRP | -0.353 |
| RRIRDRPPRLPRPRPRPVFTPRP | 0.076 |
| RRIRDRPPRLPRPRPRPVGMPRP | 0.37 |
| RRIRDRPPRLPRPRPRPVGRPRP | 0.301 |
| RRIRDRPPRLPRPRPRPVGWPRP | 0.945 |
| RRIRDRPPRLPRPRPRPVHTPRP | -0.00587 |
| RRIRDRPPRLPRPRPRPVIDPRP | 0.35 |
| RRIRDRPPRLPRPRPRPVILPRP | -0.146 |
| RRIRDRPPRLPRPRPRPVIQPRP | 0.474 |
| RRIRDRPPRLPRPRPRPVKPPRP | -0.0934 |
| RRIRDRPPRLPRPRPRPVKTPRP | 0.0145 |
| RRIRDRPPRLPRPRPRPVLDPRP | -0.0729 |
| RRIRDRPPRLPRPRPRPVLNPRP | -0.165 |
| RRIRDRPPRLPRPRPRPVLSPRP | -0.0284 |
| RRIRDRPPRLPRPRPRPVMYPRP | -0.166 |
| RRIRDRPPRLPRPRPRPVNDPRP | -0.163 |
| RRIRDRPPRLPRPRPRPVPEPRP | 0.252 |
| RRIRDRPPRLPRPRPRPVPYPRP | -0.244 |
| RRIRDRPPRLPRPRPRPVQAPRP | 0.0233 |
| RRIRDRPPRLPRPRPRPVQMPRP | -0.0835 |
| RRIRDRPPRLPRPRPRPVQVPRP | 0.011 |
| RRIRDRPPRLPRPRPRPVRAPRP | 0.325 |
| RRIRDRPPRLPRPRPRPVSFPRP | -0.191 |
| RRIRDRPPRLPRPRPRPVSRPRP | 0.218 |
